The assay has as its target cpNanoLuc α-amylase biosensor (VHH-cpNanoLuc-VHH fusion). Nature of the assay: luminescence titration of a single-component biosensor; 1 nM biosensor in 200 μl 20 mM Tris-HCl pH 7.2, 100 mM NaCl with 0.25 μl furimazine stock, titrated with its protein ligand; preincubated 15 min at room temperature; luminescence 445-470 nm; fit to a quadratic binding equation.

Kd data for 1 molecule are collected here from paper PMC8831504.

Sequence of cpNanoLuc α-amylase biosensor (VHH-cpNanoLuc-VHH fusion) (main, as listed by the source): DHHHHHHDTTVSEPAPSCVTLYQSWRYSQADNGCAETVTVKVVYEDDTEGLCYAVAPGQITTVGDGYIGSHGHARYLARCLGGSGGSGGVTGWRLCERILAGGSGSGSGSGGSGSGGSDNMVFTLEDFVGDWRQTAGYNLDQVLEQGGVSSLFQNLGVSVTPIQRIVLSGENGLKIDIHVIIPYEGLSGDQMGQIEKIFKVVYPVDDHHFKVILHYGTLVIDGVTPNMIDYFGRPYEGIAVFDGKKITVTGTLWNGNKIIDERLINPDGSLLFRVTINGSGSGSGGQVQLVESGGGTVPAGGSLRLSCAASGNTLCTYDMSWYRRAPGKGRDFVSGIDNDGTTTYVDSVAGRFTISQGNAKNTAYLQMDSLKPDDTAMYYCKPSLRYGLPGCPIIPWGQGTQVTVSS

B1: human α-amylase (enzyme)
chain: QYSSNTQQGRTSIVHLFEWRWVDIALECERYLAPKGFGGVQVSPPNENVAIHNPFRPWWERYQPVSYKLCTRSGNEDEFRNMVTRCNNVGVRIYVDAVINHMCGNAVSAGTSSTCGSYFNPGSRDFPAVPYSGWDFNDGKCKTGSGDIENYNDATQVRDCRLSGLLDLALGKDYVRSKIAEYMNHLIDIGVAGFRIDASKHMWPGDIKAILDKLHNLNSNWFPEGSKPFIYQEVIDLGGEPIKSSDYFGNGRVTEFKYGAKLGTVIRKWNGEKMSYLKNWGEGWGFMPSDRALVFVDNHDNQRGHGAGGASILTFWDARLYKMAVGFMLAHPYGFTRVMSSYRWPRYFENGKDVNDWVGPPNDNGVTKEVTINPDTTCGNDWVCEHRWRQIRNMVNFRNVVDGQPFTNWYDNGSNQVAFGRGNRGFIVFNNDDWTFSLTLQTGLPAGTYCDVISGDKINGNCTGIKIYVSDDGKAHFSISNSAEDPFIAIHAESKL
Turning to B1, the dissociation constant (Kd) was determined as 0.5 nM.
